This data set is described as follows: label from the status in PepcDB records.
Regarding “MTSASAPSFNPGKGPGSAVGIALLGFGTVGTEVMRLMTEYGDELAHRIGGPLEVRGIAVSDISKPREGVAPELLTEDAFALIEREDVDIVVEVIGGIEYPREVVLAALKAGKSVVTANKALVAAHSAELADAAEAANVDLYFEAAVAGAIPVVGPLRRSLAGDQIQSVMGIVNGTTNFILDAMDSTGADYADSLAEATRLGYAEADPTADVEGHDAASKAAILASIAFHTRVTADDVYCEGISNISAADIEAAQQAGHTIKLLAICEKFTNKEGKSAISARVHPTLLPVSHPLASVNKSFNAIFVEAEAAGRLMFYGNGAGGAPTASAVLGDVVGAARNKVHGGRAPGESTYANLPIADFGETTTRYHLDMDVEDRVGVLAELASLFSEQGISLRTIRQEERDDDARLIVVTHSALESDLSRTVELLKAKPVVKAINSVIRLERD”, the protein production result is “failed”. For “MAVEQPTAHAGGQSPAHAGEQSRIHNIGYRNYDGPRLGRAYARRSLYSQSLRGAYGLGRSVKSKVLPMLLFVVMCVPALIMVAVAVATKAKDLPVDYTRYAIIMQAVIGLYVASQAPQSVSRDLRFKTVPLYFSRPIETADYVRAKYAALASAMFILTAAPLLVLYVGALLAKLDFTDQTKGFAQGLVSVALLSLLFAGIGLVISAVTPRRGFGIAAVIAVLTISYGAVSTVQAIADAQNSTSAVPWLGLFSPVTLIDGMQTAFLGASSSFPGEAGPSSAQGVVFLIVVLGLIAGCYGLLMRRYRKVGL”, the protein production entry is on record as “failed”. Under “MIKVLIFFGIILLGLCISPWIVGNTGYVYIAAGDYQLETSLAFGIIMLIVFYALFQVLEWLVITVINLLLRSRFIPHQWRRRSAKKHTLMGALAIAEEDWPAAERAMIKGADNGELPALNLLAAARAAQHQNKTAERDQYLARAETQPLAANAVATTRTRYLLKQGEFTLARAELDKLAPTSKSKAPVLKLALELYRAQQDWEALKLLLPILKKRQILDDIQLNSLSVETHSALLQTASLKGEDALEQCWQWLSRDERNQSEFLAIYTMGLCRFNRKEQAIKLLSKKLRSSPESALLEVIPQIVTAHDTDIRKQLLKHEITHENNADYQRCLALLYQQTRDMKEAKTCWQNVCRIAPTKDSWLSLARIQEQLGEQGHANQSYRQAVTL” stands “failed”. To “MPHFLAKLDFKPLEYPLIEGDFCFHREFLSLKNPTKSCVYASFKDRIFLLQKIRRANDFLIKSEKATPLKREVLKQALRIYSQSFEVISHNLQENSKHASGKKTLDLGTFEDFIQKNQAPILIEIGFGSGRHLIELAKNNPTKTCLGIEIHTPSIAQALKQIELLDLKNLHILQGDGRLVLESMPNHRCEKIFVHFPVPWNEKKHRRVLSEKFLNEALRVLKPRGFLELRTDDSLYFEDSLKLALKNFQCEIEIKKNAQIPVVSKYEARWNKLKKDIYDLRIYSLEWNETPFDNHAFDFSFDTITISKKSVGTILKTKKIIQEGYFVHVCNIYENKGDFLVELSMGDFDWPVRLFVLLTENQIFYLNKSPLKTLNNHKAHLLLQNILSQKGIG” belongs “failed”; to “MFGCLVAGRLVQTDAQQVASDKFVFNLPDYEHVNHVVVFLLGTVPFPEGLGGAVYLCVPGGAAGQVWQLLGFITNEKPSAIFRISGLKAGEGSSHPFGMMDAPAAPSMAQVGVSVEGLHLLAQQTPVSSSAVSTLDSFTQFTQKMLDSLFNFTSSFALSQSRMSPNPSEMFIPASSIRRWYENFQRRLMQNPNFWKT”, “failed”.

“MWPDRRLIDLFKTEFPIVLAPMAGVMDAELVIAAAQGGALGSLPCAMLSAEKAREQVGLIRQRVKAPVNMNFFCHTPVDLTPEAEARWKQRLAGYYREHGLDPAAPISAANRAPFDAAFCEVVEELKPDVVSFHFGLPEQELLKRVKAAGSLVISSATTVKEAVWLERHGADAVIAQGAEAGGHRGMFLTDKIAEQPGTFALVPQVADAVKVPVIAAGGIADGRGIAAAFALGASGVQIGSAYLRCPESKVSAAGRAALAEGRDDSTVITNVMTGRPARGVQNRLMREAGPISPDAPPFPHAATALGPLKAAAEKQGRVDFTNLWAGQAIALGRELPAAELTRDLAKSALARMKALAG”: the protein production entry is given as “failed”. Turning to “MSVFTPLARPELETFLAPYGLGRLLDYQGIAAGSENTNYFISLEQGEFVLTLVERGPVQEMPFFIELLDVLHDANLPVPYALRTTDGQALRELAGKPALLQPRLPGKHISEPNTQHCVQIGELLANLHLATREQVLERKTDRGLDWMLSEGRNFLSHLGETQRALLEKSLQEIEDLKPQIMALPRANLHADLFRDNVLFEGTHLTGLIDFYNACSGPMLYDLAIALNDWCSRENGQLDAVRARALLGAYAGLRPFTAAESKLWATMLRIACVRFWLSRLIAAETFAGQDVLIHDPVEFEQRLAERQTPHIALPFAL”, the protein production entry is “not failed”. In the case of “TVDLNMQRRAEETVQKAFQQARSRGLRADQIAVAAVDPRTHFVKVLVGGRDYEESQFNRAIQSQRQPGSAFKPFVYYSAFASGNYTPFSTIDDSPVSYPDGNGTYSPQNYGGSFSGTVSLYDALVTSKNVPAVKLGKAVGLEKVIELCRLLGIESPLQPVISLPLGAVGISPLEMASAYATFASNGWQSETTLILRVTDSQGNVLLDNTPQPRLVLDPWATASLTTVLQGVVNGGTGQAANLGDRPAAGKTGTTSSERDVWFVGYVPQLAAAVWIGNDDYRPMGTGTTGGGDAAPIWRAFMQEALKGEEPQYF”, the protein production result is recorded as “failed”. Under “MLETSSHFLKSFRLKRYIGFLLISLALLITPFVRIDGAHLFLISFEHKQLHFLGKIFSAEELQVMPFMVILLFIGIFFITTSLGRVWCGWACPQTFLRVLYRDVIETKIFKLHKKISNKQESPKNTPSYKIRKVLSVLLFAPVVAGLMMLFFFYFIAPEDFFMYLKNPSDHPIAMGFWLFSTAVVLFDIVVVAERFCIYLCPYARVQSVLYDNDTLNPIYDEKRGGALYNNQGHLFPLPPKKRSPENECVNCLHCVQVCPTHIDIRKGLQLECINCLECVDACTITMAKFNRPSLIQWSSTNAINTRQKVHLVRLKTIAYMGVIAIVIALLAITSFKKERMLLDINRNSDLYELRSSGYVDNDYVFLFHNTDNKDHEFYFKVLGQKDIQIKKPLNPIAIKAGQKIKAVVILRKPLKSNATEYKNAKDALIPITIQAYSADDKNITIERESVFIAPSED” stands “failed”; under “MNKWLDLILKIHVHPFLWIIAALGLLTGHMKALLCLLLIVLIHELGHAALAVFFSWRIKRVFLLPFGGTVEVEEHGNRPLKEEFAVIIAGPLQHIWLQFAAWMLAEVSVIHQHTFELFTFYNLSILFVNLLPIWPLDGGKLLFLLFSKQLPFQKAHRLNLKTSLCFCLLLGCWVLFVIPLQISAWVLFVFLAVSLFEEYRQRHYIHVRFLLERYYGKNRELEKLLPLTVKAEDKVYHVMAEFKRGCKHPIIIEKSGQKLSQLDENEVLHAYFADKRTNSSMEELLLPY”, “failed”; under “MGVVRPAEQQSRIAARRVALLEKVDYRLAETPAEREAIYRLRYRAYLKEGAIDANSSGIVTDRYDDLPNSWIFGVFYEGELSSSLRITVASPDHHDCPSMDVFPDFLQPWLAEGKVIVDPTRFVADPTSANRLPELPYLTLRLAYVSCEYFNADIGLASVRTEHQAFYRRVMMRS”, “failed”. “MLITVYCVRRDLSEVTFSLQVSPDFELRNFKVLCEAESRVPVEEIQIIHMERLLIEDHCSLGSYGLKDGDIVVLLQKDNVGPRAPGRAPNQPRVD”: the protein production entry is listed as “failed”. Under “MAYDDIVSSMVLELRRGTLVMLVLSQLREPAYGYALVKSLADHGIPIEANTLYPLMRRLESQGLLASEWDNGGSKPRKYYRTTDEGLRVLREVEAQWHVLCDGVGKLLETNGEDREHAER” stands “not failed”; under “MLKEIKRRNRMKNKRLIGIIAALAVLVAGSLIYSSMNKSEAQNNKDEKKITKIGVLQFVSHPSLDLIYKGIQDGLAEEGYKDDQVKIDFMNSEGDQSKVATMSKQLVANGNDLVVGIATPAAQGLASATKDLPVIMAAITDPIGANLVKDLKKPGGNVTGVSDHNPAQQQVELIKALTPNVKTIGALYSSSEDNSKTQVEEFKAYAEKAGLTVETFAVPSTNEIASTVTVMTSKVDAIWVPIDNTIASGFPTVVSSNQSSKKPIYPSATAMVEVGGLASVVIDQHDLGVATGKMIVQVLKGAKPADTPVNVFSTGKSVINKKIAQELGITIPESVLKEAGQVIE”, “not failed”; under “AGVSDTAASVCITITAPSKAWNIAGLKCAQIIFSNPSDAEHWQQLSPVIKDGASTLGLIAAEAAYRYGTDFLNQEVAYLKNNHDFLLHEIPKRIPGAKITPMQATYLMWIDFRDTTIEGSPSEFFIEKAKVAMNDGAWFGEDGTGFCRLNFATSREVLEEAIDRMAKAVSHHT”, “failed”. In the case of “MKGEESVQLQSIEKRVSSGHSPSCAEILLSTIQEMNREENLLKALDLFTQRSLVLFDCDVAAIYLLEQGKYKPFSVSFRDDKDRETLMLREFPQDFREIGTEVVETDEEWVLALSHFGKTLGAYVLKGRRSQCRDEGSAVFVKQVISIISSFIFERILKIDSLSREQALTLLLRGTEILVRADSEEQLLSEAGEMAMEILFLPGGFFLLEGAGGTWEIRSPFGRLKQEMEWDWRTWVRQYISKEECCLRSAKVHFFDIENNPFKWERVWIHPLQTHSGVVGELWLMNAGKYLNDQEQEILTAFIRVVGVALETIRQREELARLANTDRLTGILNRQGFEQRVREEIASTLRRDSRFLFLVLDLDRFKQLNDTLGHPMGDRALKEIAQNLRCAVREQDIVARTGGDEFTVVLTDIALNEESLTVIERMRKSMHLEEYNLGVSIGVAEFPTEGRTYDELYRLADQRLYRGKNSGKGNIIAD”, the protein production result is listed as “failed”. Regarding “MFGAELVIVLLAIYLGARLGGIGIGFAGGLGVLVLTLIFQIKPGAIPFDVIEIIMAVIAAIAAMQVAGGMDYLVSLAERMLRRHPKYITFLAPLVTWFMTVLAGTGHTAFSTLPVITEVAKEQGIRPSRPLSIAVVASQIAITASPISAAVVFFAGILEPLGVSYLTLLAICIPVTLLAVMLTAIVCNFLGCELKDDPVYQERLAKGEVRLRGSQVFELQPHAKRSVLLFLIGIVAVMFYATAISDTVGLIKNPVLPRNEAIVVFMLTIATLISITCKIDTGEVLNASTFKSGMSACVCVLGVAWLGDTFVKAHISDIQAVAGDLLHNYPWLLAVVLFFAATLLYSQAATTKALMPAALLLGVSPLTAIASFAAVSALFVLPTYPTLLAAVEMDDTGSTRIGKYVFNHAFLIPGVIAITLCVILGFIFGGIML”, the protein production entry is given as “failed”. For the sequence “MTTYLIIGANRVGQLVARQLATESATVRLLHDGKETLPSDLATQVTELTGDLTQEATYTAALQDQPIIFSALTGMDVDLAFEALFDAQYHQRLTFQRFVMLSTAGVDQEVTGDLAYPGITDVAEYLKQQRYAAKLVDEAEFPYTILRPVTLADSPRRDPQIIKEGAAVPAGTVSRETVAQVAVSLLQAGGADYQSLAICLEHHHHHH”, the protein production result is “failed”.

As to “MGETVVRDAVTIGKPAEQLYAVWRDLPGLPLLMTHLRSVEVLDDKRSRWTVEAPAPLGTVSWEAELTADEPGKRIAWRSLPGARIENSGEVLFRPAPGARGTEVVVRLTYRPPGGSAGAVIARMFNQEPSQQLRDDLMRFKREQELGLEHHHHHH”, the protein production entry is given as “not failed”. Regarding “MSPSDSSGDSDDPARSRAAVRRTYEDIGDHFSKTREYAWPEVESFVDESGSVGTALDAGCGNGRHAELLAGVADRVVGLDASRALLRAATDRVGDSVALLQGDATRLPLAAGAVDLAVYVATLHHLPSQTARRASLDELARVLAPGARALVSAWSTAHDHFDADPDADEGFDTTVDWTLPGGETVPRFYHIYAPAEFERDVADSDLRLVSMELSSGNCYGVVEPEGKRT”, the protein production entry is “failed”. For the sequence “MASESSIDEKKKKAQVTQSNINKNTPQQLTDKDLFGNETTLAVSEEDIQAALDGDEFRVPLNSPVILVQSGNRAPETIMQEEMRKYYTVSTFSGIPDRQKPLTCNKNKDKNENEDVASAENMNWMQALRFVAAKGHQKAIIVYQDMLQTGKYDSALKSTVWSDYKNDKLTDAISLRYLVRFTLVDVATGEWATWSPVNYEYKVLPPLPDKNEASTTDMTEQQIMQLKQKTYKAMVKDLVNRYQLEHHHHHH”, the protein production result is on record as “failed”.

The values above are taken from a protein production outcome set (Wang et al. 2014).
